The target in assay [1] is T1, rhesus c-Met on 4MBr-5 cells (rhesus).
T1 construct: whole, on cells
The assay can be described thus: flow cytometry, Fab titration on rhesus 4MBr-5 cells. As to the method: (§1) In order to further characterize the anti-c-Met antibodies, the affinity to full length human and cynomolgus c-Met is determined. GTL16, CHO cells overexpressing cynomolgus c-Met or rhesus 4 MBr-5 cells are washed, trypsinised, and suspended in PBS containing 3% FCS (3% FCS/PBS) at 4-C. 2-5×10⁵ cells/sample are resuspended in 140 μl of 3% FCS//PBS containing 5 μg/ml of purified anti-cMet Fabs or serial dilutions thereof. As a positive control 5 μg/ml of DO24 (mouse IgG2a), anti-human c-Met is used. The cells are incubated for 30-60 minutes at 4° C. before being pelleted by centrifugation for 2 min at 2000 rpm (716 g) at 4° C. and washed in 200 μl of in chilled 3% FCS/PBS. The cells are again pelleted by centrifugation and the PBS gently removed. Cells are resuspended in 100 μl of goat anti-human IgG (H+L) PE conjugated (Jackson Cat No. 109-116-088) diluted 1:200 in 3% FCS/0.02% NaN₃/PBS; For the positive control goat anti-mouse IgG (H+L)-PE conjugated (Jackson Cat No. 115-116-146) diluted 1:200 in 3% FCS/PBS is used. Samples are incubated in the dark for 30-60 min at 4° C. Following centrifugation and washing in 200 μl of 3% FCS/0.02%/NaN₃/PBS the cells are resuspended in 100 μl of 3% FCS/PBS and assayed using FACS-array or FACS-Calibur.

The target in assay [2] is T2, full length human c-Met on cells (human, UniProt P08581 25-1390).
T2 construct: whole, on cells; NCI-H441 for migration; A549 for autophosphorylation; also called human c-Met GTL-16; c-Met on NCI-H441 cells
T2 sequence (P08581 25-1390): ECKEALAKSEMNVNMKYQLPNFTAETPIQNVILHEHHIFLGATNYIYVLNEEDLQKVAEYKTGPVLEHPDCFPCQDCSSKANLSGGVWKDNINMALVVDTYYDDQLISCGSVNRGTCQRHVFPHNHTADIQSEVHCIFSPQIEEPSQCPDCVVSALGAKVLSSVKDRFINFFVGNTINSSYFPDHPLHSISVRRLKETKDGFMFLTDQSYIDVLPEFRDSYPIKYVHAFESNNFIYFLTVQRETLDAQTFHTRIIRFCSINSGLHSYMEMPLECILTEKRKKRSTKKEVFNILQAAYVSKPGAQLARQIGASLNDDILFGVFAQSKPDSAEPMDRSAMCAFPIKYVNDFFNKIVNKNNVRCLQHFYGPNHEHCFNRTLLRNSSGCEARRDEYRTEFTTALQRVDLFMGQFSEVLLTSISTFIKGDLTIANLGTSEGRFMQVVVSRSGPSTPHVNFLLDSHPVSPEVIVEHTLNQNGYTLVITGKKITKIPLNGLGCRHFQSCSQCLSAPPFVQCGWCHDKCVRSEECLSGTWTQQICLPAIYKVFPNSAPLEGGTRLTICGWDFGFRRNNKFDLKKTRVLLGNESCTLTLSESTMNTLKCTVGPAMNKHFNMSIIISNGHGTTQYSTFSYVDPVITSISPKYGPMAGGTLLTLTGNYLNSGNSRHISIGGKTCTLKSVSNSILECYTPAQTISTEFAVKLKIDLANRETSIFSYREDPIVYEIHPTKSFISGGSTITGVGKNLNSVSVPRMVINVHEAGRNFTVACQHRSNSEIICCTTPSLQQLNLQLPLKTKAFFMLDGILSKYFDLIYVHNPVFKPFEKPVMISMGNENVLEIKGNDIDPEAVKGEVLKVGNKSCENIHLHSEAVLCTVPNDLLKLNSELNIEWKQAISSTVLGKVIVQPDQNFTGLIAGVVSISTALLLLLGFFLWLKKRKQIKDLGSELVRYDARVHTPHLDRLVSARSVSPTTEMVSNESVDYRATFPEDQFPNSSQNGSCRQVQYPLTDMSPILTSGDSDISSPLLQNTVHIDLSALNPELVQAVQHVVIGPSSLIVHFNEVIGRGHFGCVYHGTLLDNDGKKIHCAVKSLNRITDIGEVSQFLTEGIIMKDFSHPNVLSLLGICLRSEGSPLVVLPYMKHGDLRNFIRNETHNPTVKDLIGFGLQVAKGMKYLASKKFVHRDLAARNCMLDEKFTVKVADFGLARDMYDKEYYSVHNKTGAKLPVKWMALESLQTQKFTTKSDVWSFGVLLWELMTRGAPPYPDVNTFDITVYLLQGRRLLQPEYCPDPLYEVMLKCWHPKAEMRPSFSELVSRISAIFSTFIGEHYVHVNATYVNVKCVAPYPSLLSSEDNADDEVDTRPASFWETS
As to the kind of experiment: flow cytometry, Fab titration on GTL-16 cells. As to the method:
as §1

For assay [3], the target named is T3, cynomolgus c-Met on CHO cells (cynomolgus, UniProt A0A2K5UM36 25-1381, The natural precursor is cleaved into disulfide-linked alpha and beta subunits. It is given here as one mature chain, following the entry's CHAIN feature.).
T3 construct: also called cyno c-Met; CHO-cMet cyno
T3 sequence (A0A2K5UM36 entry or part of it limits assumed): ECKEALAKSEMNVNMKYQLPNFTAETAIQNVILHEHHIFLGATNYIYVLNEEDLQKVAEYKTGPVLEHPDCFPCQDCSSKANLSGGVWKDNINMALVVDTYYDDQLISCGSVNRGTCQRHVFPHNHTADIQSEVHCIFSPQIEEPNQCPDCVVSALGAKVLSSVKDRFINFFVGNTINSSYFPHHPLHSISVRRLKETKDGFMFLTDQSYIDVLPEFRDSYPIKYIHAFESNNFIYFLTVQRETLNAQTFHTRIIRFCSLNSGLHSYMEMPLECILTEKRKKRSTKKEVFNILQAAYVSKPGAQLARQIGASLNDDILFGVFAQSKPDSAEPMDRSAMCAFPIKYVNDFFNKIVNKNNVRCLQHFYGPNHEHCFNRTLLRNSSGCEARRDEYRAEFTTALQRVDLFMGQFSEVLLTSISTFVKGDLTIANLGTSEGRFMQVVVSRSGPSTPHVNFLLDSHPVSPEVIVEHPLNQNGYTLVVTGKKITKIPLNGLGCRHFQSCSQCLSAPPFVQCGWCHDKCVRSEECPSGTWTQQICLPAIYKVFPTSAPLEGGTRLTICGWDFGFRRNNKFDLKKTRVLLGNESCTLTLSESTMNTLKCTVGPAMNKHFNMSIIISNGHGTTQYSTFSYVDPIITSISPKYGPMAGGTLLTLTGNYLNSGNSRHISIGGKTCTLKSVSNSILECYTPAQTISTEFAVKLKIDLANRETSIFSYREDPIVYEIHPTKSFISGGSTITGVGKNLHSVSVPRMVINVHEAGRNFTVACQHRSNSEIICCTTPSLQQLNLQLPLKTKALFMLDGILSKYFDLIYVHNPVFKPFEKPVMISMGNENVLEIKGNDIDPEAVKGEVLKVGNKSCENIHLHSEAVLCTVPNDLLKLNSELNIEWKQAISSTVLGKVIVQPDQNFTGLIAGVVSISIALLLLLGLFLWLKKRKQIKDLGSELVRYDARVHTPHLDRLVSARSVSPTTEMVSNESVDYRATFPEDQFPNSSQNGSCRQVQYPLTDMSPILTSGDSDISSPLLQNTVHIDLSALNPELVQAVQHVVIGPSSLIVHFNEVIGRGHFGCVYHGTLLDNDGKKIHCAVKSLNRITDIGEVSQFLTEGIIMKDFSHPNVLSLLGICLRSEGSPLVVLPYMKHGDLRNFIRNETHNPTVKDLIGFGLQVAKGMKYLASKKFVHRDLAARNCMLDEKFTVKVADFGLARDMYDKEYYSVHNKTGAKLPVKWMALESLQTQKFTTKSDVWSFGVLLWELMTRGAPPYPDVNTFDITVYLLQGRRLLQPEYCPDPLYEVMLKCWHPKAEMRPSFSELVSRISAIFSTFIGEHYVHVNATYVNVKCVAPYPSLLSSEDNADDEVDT
As to the kind of experiment: flow cytometry, Fab titration on CHO cells overexpressing cynomolgus c-Met. The procedure: as §1

In assay [4] the target is T4, recombinant human c-Met (human, UniProt P08581 25-932, limits assumed).
T4 construct: Soluble recombinant protein: immobilised on the CM5 chip in Biacore, in solution in the equilibrium titration; The precursor is cleaved into disulfide-linked alpha and beta subunits; also called Hepatocyte Growth Factor Receptor
T4 sequence (P08581 25-932 limits assumed): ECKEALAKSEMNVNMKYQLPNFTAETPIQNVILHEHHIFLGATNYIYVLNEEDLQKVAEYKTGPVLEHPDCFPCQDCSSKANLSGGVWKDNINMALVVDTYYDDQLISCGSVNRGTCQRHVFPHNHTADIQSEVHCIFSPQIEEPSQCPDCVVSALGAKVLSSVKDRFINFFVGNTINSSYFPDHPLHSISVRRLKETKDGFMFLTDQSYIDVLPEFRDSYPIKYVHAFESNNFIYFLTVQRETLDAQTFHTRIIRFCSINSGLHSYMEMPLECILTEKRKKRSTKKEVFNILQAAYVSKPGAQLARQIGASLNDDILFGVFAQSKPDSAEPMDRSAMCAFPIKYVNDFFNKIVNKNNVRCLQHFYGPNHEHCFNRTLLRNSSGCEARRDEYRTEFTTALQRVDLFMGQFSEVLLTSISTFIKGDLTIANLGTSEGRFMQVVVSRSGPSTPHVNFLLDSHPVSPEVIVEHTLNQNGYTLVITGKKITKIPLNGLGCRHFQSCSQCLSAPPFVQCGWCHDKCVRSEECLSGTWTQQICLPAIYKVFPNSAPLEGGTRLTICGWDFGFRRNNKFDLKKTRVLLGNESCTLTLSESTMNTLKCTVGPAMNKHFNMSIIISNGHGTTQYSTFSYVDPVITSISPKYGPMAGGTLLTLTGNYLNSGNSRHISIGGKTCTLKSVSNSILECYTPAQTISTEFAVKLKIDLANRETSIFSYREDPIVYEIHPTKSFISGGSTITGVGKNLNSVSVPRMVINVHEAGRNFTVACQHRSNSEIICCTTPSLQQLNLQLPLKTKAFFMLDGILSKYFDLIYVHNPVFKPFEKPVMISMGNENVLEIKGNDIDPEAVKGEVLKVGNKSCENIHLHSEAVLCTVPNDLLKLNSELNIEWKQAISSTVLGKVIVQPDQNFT
As to the kind of experiment: SPR (BIAcore), c-Met amine-coupled on CM5 chip, Fab 16-500 nM as analyte. As to the method: (§2) Using these clones, kinetic SPR analysis is performed on a CM5 chip (Biacore, Sweden) which had been coated with a density of ˜400 RU of either recombinant human c-Met, in 10 mM Na-acetate pH 4.5 using standard EDC-NHS amine coupling chemistry. […] PBS (136 mM NaCl, 2.7 mM KCl, 10 mM Na2HPO4 , 1.76 mM KH2PO4 pH 7.4) is used as the running buffer. The Fab preparations are applied in concentration series of 16-500 nM at a flow rate of 20 μl/min. Association phase is set to 60 s and dissociation phase to 120 s.

Assay [5] has as its target T4, recombinant human c-Met. The assay can be described thus: SPR (BIAcore), Fab on immobilised human c-Met. As to the method:
as §2

Assay [6] deals with T3, cynomolgus c-Met on CHO cells. As to the kind of experiment: flow cytometry, Fab on CHO-cyno c-Met cells. As to the method:
as §1

The target of assay [7] is T2, full length human c-Met on cells. As to the kind of experiment: flow cytometry, Fab on GTL-16 cells. As to the method: as §1
The target in assay [8] is T3, cynomolgus c-Met on CHO cells. The assay can be described thus: flow cytometry, Fab on CHO-cyno c-Met cells. The procedure:
as §1
(§3) Using the assay conditions described above, the affinities for the affinity-optimized anti-c-Met Fabs are determined in solution. Affinities are determined for antibodies with KDs below 4.6 pM to human c-Met. FACs based analysis of binding to cyno-c-Met expressed on CHO cells, as described above, is carried out.
The source holds these as a separate data set.

Assay [9] deals with T4, recombinant human c-Met. As to the kind of experiment: solution equilibrium titration (SET), ECL detection (BioVeris), Fab with human c-Met in solution. The procedure: Electrochemiluminescence (ECL) based affinity determination in solution and data evaluation are basically performed as described by Haenel et al., 2005. A constant amount of Fab is equilibrated with different concentrations (serial 3ⁿ dilutions) of human c-Met (4 nM starting concentration) in solution. Biotinylated human c-Met coupled to paramagnetic beads (M-280 Streptavidin, Dynal), and BV-Tag™ (BioVeris Europe, Witney, Oxfordshire, UK) labelled anti-human (Fab)′₂ (Dianova) is added and the mixture incubated for 30 min. Subsequently, the concentration of unbound Fab is quantified by ECL detection using the M-SERIES® 384 analyzer (BioVeris Europe).
as §3

B1: 04682 (parental anti-cMet Fab antibody) (Fab, V domains shown)
VH: QVQLVQSGAEVKKPGESLKISCKGSGYSFTNYGIAWVRQMPGKGLEWMGIIYPSDSYTNYSPSFQGQVTISADKSISTAYLQWSSLKASDTAMYYCARMSYDYQHQAPSMDSWGQGTLVTVSS
VL: DIVLTQPPSVSGAPGQRVTISCSGSSSNIGSNYVIWYQQLPGTAPKLLIYDDTNRPSGVPDRFSGSKSGTSASLAITGLQSEDEADYYCSTYDNYQAGWVFGGGTKLTVLG
notes: carries two C-terminal tags (FLAG and 6xHis)
For B1, the Kd in assay [1] came out at 0.3 nM; in assay [2], 1.2 nM; in assay [3], 0.3 nM; with recombinant human c-Met [4], 11.2 nM.

B2: 04687 (parental anti-cMet Fab antibody) (Fab, V domains shown)
VH: QVQLVQSGAEVKKPGSSVKVSCKASGGTFSSYAISWVRQAPGQGLEWMGGIDPFGTANYAQKFQGRVTITADESTSTAYMELSSLRSEDTAVYYCARVYQDVWGQGTLVTVSS
VL: DIVMTQSPDSLAVSLGERATINCRSSQSILYGINNNFLGWYQQKPGQPPKLLIYWASTRESGVPDRFSGSGSGTDFTLTISSLQAEDVAVYYCQQYYNHPHTFGQGTKVEIKR
notes: as for B1
For B2, the Kd in [1] is 1.2 nM; with recombinant human c-Met [5], 0.8 nM; in [6] it was 1.3 nM; in assay [2] it was 5.7 nM; in assay [3] it was 1.1 nM; in assay [7], 4 nM. Besides, the dissociation constant (Kd) with recombinant human c-Met [4] is 0.8 nM.

B3: 05097 (affinity-improved anti-cMet Fab antibody) (Fab, V domains shown)
VH: QVQLVQSGAEVKKPGSSVKVSCKASGGTFSSYAISWVRQAPGQGLEWMGGIDPFGTANYAQKFQGRVTITADESTSTAYMELSSLRSEDTAVYYCARVYQDVWGQGTLVTVSS
VL: DIVMTQSPDSLAVSLGERATINCRSSQSILYGINNNFLGWYQQKPGQPPKLLIYWASTRESGVPDRFSGSGSGTDFTLTISSLQAEDVAVYYCQQYAFGWTFGQGTKVEIKR
On to B3, for which the results for the Kd (in [8]; with recombinant human c-Met [9]) were 0.00068 nM and 0.0036 nM, respectively.

B4: 05185 (affinity-improved anti-cMet Fab antibody) (Fab, V domains shown)
VH: QVQLVQSGAEVKKPGSSVKVSCKASGGTFSSYAISWVRQAPGQGLEWMGGIDPIMGTEYAQKFQGRVTITADESTSTAYMELSSLRSEDTAVYYCARVYQDVWGQGTLVTVSS
VL: DIVMTQSPDSLAVSLGERATINCRSSQSILYGINNNFLGWYQQKPGQPPKLLIYWASTRESGVPDRFSGSGSGTDFTLTISSLQAEDVAVYYCQQYAYEPNTFGQGTKVEIKR
In the case of B4, the dissociation constant (Kd) in assay [8] was 0.00029 nM; with recombinant human c-Met [9] it was 0.0046 nM.

B5: 05098 (affinity-improved anti-cMet Fab antibody) (Fab, V domains shown)
VH: QVQLVQSGAEVKKPGSSVKVSCKASGGTFSSYAISWVRQAPGQGLEWMGGIDPFGTANYAQKFQGRVTITADESTSTAYMELSSLRSEDTAVYYCARVYQDVWGQGTLVTVSS
VL: DIVMTQSPDSLAVSLGERATINCRSSQSILYGINNNFLGWYQQKPGQPPKLLIYWASTRESGVPDRFSGSGSGTDFTLTISSLQAEDVAVYYCLQYSDEPWTFGQGTKVEIKR
On to B5, for which the Kd came out at 0.0003 nM in assay [8] and 0.0021 nM in the assay with recombinant human c-Met [9].

B6: 04536 (parental anti-cMet Fab antibody) (Fab, V domains shown)
VH: QVQLVQSGAEVKKPGASVKVSCKASGYTFTGYYMNWVRQAPGQGLEWMGIINPWTGNTNYAQKFQGRVTMTRDTSISTAYMELSSLRSEDTAVYYCARDPGFFYYTPSDLWGQGTLVTVSS
VL: DIELTQPPSVSVAPGQTARISCSGDSIGNKYVHWYQQKPGQAPVLVIYADSDRPSGIPERFSGSNSGNTATLTISGTQAEDEADYYCQAYDSSMLRVFGGGTKLTVLG
notes: as for B1
As for B6, the Kd in [1] turned out to be 0.1 nM; with recombinant human c-Met [5] it was 1.4 nM; in [6], 229 nM; in [2], 0.4 nM; in [3], 0.5 nM; in [7], 1.7 nM. Moreover, in the assay with recombinant human c-Met [4], the equilibrium dissociation constant (Kd) was found to be 1.4 nM.

Values taken from patent US20090175860A1 (Novartis, published 2009).
